Source: publication PMC3388945

Target: GST-TFIIB fusion protein (UniProt Q00403)
Assay: pull-down

Chain of UniProt Q00403 (Q00403 whole entry, the tested form may be a part): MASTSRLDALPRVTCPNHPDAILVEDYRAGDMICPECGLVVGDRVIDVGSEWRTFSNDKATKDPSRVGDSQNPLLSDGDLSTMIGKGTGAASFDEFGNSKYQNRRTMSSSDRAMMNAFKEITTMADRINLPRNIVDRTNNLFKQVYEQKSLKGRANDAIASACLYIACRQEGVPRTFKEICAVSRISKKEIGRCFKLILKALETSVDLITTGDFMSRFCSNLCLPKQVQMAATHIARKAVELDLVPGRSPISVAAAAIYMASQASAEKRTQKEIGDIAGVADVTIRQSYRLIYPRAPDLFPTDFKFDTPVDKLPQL

Row | Substance | percent of input precipitated
1 | 35S-IR2P(78-397)-NH (domain or fragment) | 12 % of input
2 | 35S-IR2P(78-438)-NH (domain or fragment) | 13 % of input
